Laboratory results taken from patent US20130196320A1, “METHOD FOR IMPROVING CLEAVAGE OF DNA BY ENDONUCLEASE SENSITIVE TO METHYLATION” (CELLECTIS, priority 2010, published 2013).
Where “and” joins values, the source holds several entries; their conditions need not be identical. Equal values may be shown once.

Tested on: C1234 DNA target
Assay: In vitro single turn over cleavage assay with C1234 duplexes
Type: biochemical
Experimental: FIG. 5: In vitro cleavage of unmethylated or methylated C1234 by I-Cre I wild type. A constant amount of C 1234 duplex (50 nM) was incubated with an excess of I-Cre I (1.5 μM, final concentration) in the reaction buffer (10 mM Tris-HCl, 150 mM NaCl, pH8) at 37° C. Cleavage reaction was triggered by the addition of MgCl2 and then stopped after different time lengths by the addition of the stop buffer. This was followed by one hour of incubation at 37° C. to digest I-Cre I and release free DNA molecules. Cleaved and uncleaved DNA products were separated by PAGE using a TGX Any kD precast gel (Bio-Rad), stained with SYBR Green and then quantified using Quantity One software (Bio-Rad). Disappearance of substrate (uncleaved DNA) is plotted as a function of time.
To investigate the influence of C1234 methylation on the nuclease activity of I-Cre I, in vitro single turn over cleavage assays were performed with either unmethylated or methylated C1234 duplexes (unmethylated C1234 composed of SEQ ID NO: 31+SEQ ID NO: 32, C1234_Me full composed of SEQ ID NO: 35+SEQ ID NO: 38, C1234_Me-6a/-5b composed of SEQ ID NO: 33+SEQ ID NO: 36, C1234_Me-3a/-2b composed of SEQ ID NO: 34+SEQ ID NO: 37, C1234_Me-3a composed of SEQ ID NO: 34+SEQ ID NO: 32, C1234_Me-2b composed of SEQ ID NO: 31+SEQ ID NO: 37, respectively). A constant amount of C1234 duplex (50 nM) was incubated with an excess of I-Cre I (1.5 μM, final concentration) in the reaction buffer (10 mM Tris-HCl, 150 mM NaCl, pH8) at 37° C. Cleavage reaction was triggered by the addition of MgCl2 and then stopped after different time lengths by the addition of the stop buffer (45% glycerol, 95 mM EDTA, 1.5% (w/v) SDS, 1.5 mg/mL proteinase K and 0.048% (w/v) bromophenol blue, final concentrations). This was followed by one hour incubation at 37° C. to digest I-Cre I and release free DNA molecules. Cleaved and uncleaved DNA products were separated by PAGE using a TGX Any kD precast gel (Bio-Rad), stained with SYBR Green and then quantified using Quantity One software (Bio-Rad).
To test the influence of C 1234 methylation on I-Cre I cleavage activity, single turn over cleavage assays in vitro were performed with unmethylated (composed of SEQ ID NO: 31+SEQ ID NO: 32) or with different methylated forms of C1234 (FIG. 5). In these assays C1234 was premixed to a large excess of recombinant meganucleases before addition of MgCl2. After different time lengths, the reaction was quenched by addition of a stop buffer, the remaining substrate was separated from the reaction product and then quantified. In these conditions, substrate disappearance was a first order process. The rate constant of this process corresponded to the turn over number (kcat) of the meganuclease. Turn over number measurement was not affected by affinity differences between methylated and unmethylated C1234 for I-Cre I because in our experimental conditions, the totality of C1234 was bound to the meganuclease at the beginning of reaction. In addition, this measurement was not affected by the rate limiting step of product release (Wang J, Kim H H, Yuan X, Herrin D L: Purification, biochemical characterization and protein-DNA interactions of the I-CreI endonuclease produced in Escherichia coli. Nucleic Acids Res 1997, 25:3767-3776) because the complex I-Cre I:cleaved C1234 product was artificially disrupted by the proteinase K and SDS present in the stop buffer.

B1: I-CreI: wild-type I-CreI meganuclease (… homing endonuclease), SEQ ID NO: 1, recombinant Cterm His-tag (protein, listed as Chlamydomonas reinhardtii)
chain: MNTKYNKEFLLYLAGFVDGDGSIIAQIKPNQSYKFKHQLSLTFQVTQKTQRRWFLDKLVDEIGVGYVRDRGSVSDYILSEIKPLHNFLTQLQPFLKLKQKQANLVLKIIEQLPSAKESPDKFLEVCTWVDQIAALNDSKTRKTTSETVRAVLDSLSEKKKSSP
modifications: C-terminal His-tag
kcat (C1234_Me full (fully methylated)): <1.7e-06 s⁻¹ | kcat (C1234_Me-2b): <1.7e-06 s⁻¹ | kcat (C1234_Me-3a): 0.00095 ± 0.0001 s⁻¹ | kcat (C1234_Me-3a/-2b): 3.3e-06 ± 5e-05 s⁻¹ | kcat (C1234_Me-6a/-5b): 0.00033 ± 0.00012 s⁻¹ | effect of methylation on catalytic activity (C1234 methylated in position −2b): almost totally inhibited it | effect of methylation on catalytic activity (C1234 methylated in position −3a): didn't affect 1-Cre I catalytic activity | effect of methylation on catalytic activity (C1234 methylated in positions −3a and −2b (within the cleavage region)): strongly affected the catalytic activity of I-Cre I | effect of methylation on catalytic activity (C1234 methylated in positions −6a/−5b (outside the cleavage region)): did not affect I-Cre I catalytic activity | kcat (unmethylated C1234): 0.000417 s⁻¹ and 0.000417 ± 3.3e-05 s⁻¹
